Literature values, collected in paper PMC3491057, “Proliferating Cell Nuclear Antigen (PCNA) Interactions in Solution Studied by NMR” (PLoS ONE, 2012).

Assays:
[1] = biological target: p21 (p2120) 141-160 (Homo sapiens) (UniProt P38936)
[2] = biological target: p21 (p2122) 139-160 (Homo sapiens) (UniProt P38936)
[3] = biological target: p21 87-164 (Homo sapiens) (UniProt P38936)
Fen-1 (Homo sapiens) = Fen-1 (Homo sapiens) (UniProt P39748); test: SPR
Chain of Fen-1 (Homo sapiens) (P39748 whole entry): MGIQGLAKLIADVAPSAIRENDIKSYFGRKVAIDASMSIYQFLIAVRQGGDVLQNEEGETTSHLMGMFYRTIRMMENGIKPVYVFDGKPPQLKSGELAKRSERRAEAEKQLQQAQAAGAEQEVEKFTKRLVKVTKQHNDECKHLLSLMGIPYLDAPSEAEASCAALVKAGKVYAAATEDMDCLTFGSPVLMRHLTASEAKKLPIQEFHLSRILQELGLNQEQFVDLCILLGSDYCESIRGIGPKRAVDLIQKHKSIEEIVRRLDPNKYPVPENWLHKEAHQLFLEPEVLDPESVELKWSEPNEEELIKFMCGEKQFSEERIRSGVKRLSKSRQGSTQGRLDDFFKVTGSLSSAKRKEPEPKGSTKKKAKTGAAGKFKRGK

Chain of PCNA (P12004 whole entry): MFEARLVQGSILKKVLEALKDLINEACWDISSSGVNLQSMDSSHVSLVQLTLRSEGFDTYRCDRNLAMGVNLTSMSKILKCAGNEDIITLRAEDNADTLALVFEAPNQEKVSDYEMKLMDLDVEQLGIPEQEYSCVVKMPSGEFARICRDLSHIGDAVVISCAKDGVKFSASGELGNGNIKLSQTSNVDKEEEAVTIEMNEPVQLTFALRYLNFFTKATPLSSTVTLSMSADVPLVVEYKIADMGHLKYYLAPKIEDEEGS
Chain of p21 (p2122) 139-160 (Homo sapiens) (P38936 139-160): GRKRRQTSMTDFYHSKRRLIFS
Chain of p21 (p2120) 141-160 (Homo sapiens) (P38936 141-160): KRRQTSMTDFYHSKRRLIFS
Chain of p21 87-164 (Homo sapiens) (P38936 87-164): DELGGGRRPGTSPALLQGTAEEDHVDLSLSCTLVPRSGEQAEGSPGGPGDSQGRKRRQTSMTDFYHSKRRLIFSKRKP

Kd [1]: 88 nM
Kd [2]: 83 nM
Kd [3]: 15 nM
Kd (Fen-1 (Homo sapiens)): 60 nM
Substance: PCNA (from UniProt P12004)
